According to the supplement of paper PMC10065799, “High-throughput profiling of sequence recognition by tyrosine kinases and SH2 domains using bacterial peptide display” (eLife, 2023):

Molecular target: EPHB1 (UniProt P54762)
Assay: phosphorylation enrichment, bacterial display (enrichment ratio); higher = better substrate or ligand; peptides without Tyr show the background
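Further: 11-residue human phosphosite peptides and single-mutation variants displayed on the E. coli surface, counted by deep sequencing, each peptide's frequency after selection divided by its frequency in the unselected input library; frequency after pTyr selection over input frequency; kinase dosed for 20-30% of maximal phosphorylation in three min.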

Sequence of EPHB1 (P54762 whole entry, looked up): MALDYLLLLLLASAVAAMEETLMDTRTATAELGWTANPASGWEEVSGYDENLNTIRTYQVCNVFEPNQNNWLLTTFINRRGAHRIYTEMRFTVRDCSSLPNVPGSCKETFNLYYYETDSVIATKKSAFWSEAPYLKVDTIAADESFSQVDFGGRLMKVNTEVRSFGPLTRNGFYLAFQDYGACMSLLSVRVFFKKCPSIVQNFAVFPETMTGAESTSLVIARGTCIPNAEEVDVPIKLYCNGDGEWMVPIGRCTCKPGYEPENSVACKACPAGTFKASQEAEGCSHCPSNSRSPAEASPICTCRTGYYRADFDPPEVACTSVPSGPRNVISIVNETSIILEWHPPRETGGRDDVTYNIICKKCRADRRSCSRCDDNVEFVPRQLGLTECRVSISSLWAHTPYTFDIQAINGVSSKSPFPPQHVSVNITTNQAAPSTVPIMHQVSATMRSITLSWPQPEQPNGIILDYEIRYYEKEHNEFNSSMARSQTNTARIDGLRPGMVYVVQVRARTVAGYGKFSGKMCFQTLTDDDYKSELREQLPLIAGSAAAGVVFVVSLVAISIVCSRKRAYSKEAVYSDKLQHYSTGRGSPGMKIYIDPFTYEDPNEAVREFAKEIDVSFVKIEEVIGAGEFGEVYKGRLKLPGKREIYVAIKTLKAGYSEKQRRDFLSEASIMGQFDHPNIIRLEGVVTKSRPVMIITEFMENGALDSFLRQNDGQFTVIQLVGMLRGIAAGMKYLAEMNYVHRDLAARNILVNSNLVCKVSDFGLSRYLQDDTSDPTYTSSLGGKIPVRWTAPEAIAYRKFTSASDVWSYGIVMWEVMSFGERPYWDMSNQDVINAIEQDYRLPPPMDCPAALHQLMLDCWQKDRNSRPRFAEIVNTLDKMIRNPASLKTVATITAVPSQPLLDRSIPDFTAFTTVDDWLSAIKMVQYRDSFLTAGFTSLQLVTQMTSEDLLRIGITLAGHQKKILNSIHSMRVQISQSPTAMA

Sequence | phosphorylation enrichment
GLSDLYVKIHL [SYT2_Y309_P308L] | 0.826
EQSGSYIWVPA [DLG1_Y895] | 0.892
PIYEGYALPHA [ACTA1_Y171] | 27.2
LTVVIYVLIGR [EPHA3_Y561] | 1.05
NFDRIYIFHLR [MYOF_Y1137_V1136I_YF] | 0.732
SQQTFCRVSNM [ABCD1_Y181_Y181C_YF] | 0.461
ERCAQYKKDGA [ALDOA_Y138] | 0.409
FEPWVYSLSYE [PRKDC_Y647_F649L] | 0.749
DPTNTYARPAE [SGMS2_Y24] | 0.466
KDAGDYKCKAK [LRIT3_Y326] | 0.408
EKAEVYRSENE [RIOK2_Y348_G349R] | 0.51
EGTGHYLCNAC [GATA5_Y208_D203E] | 0.354
DSILVYQRKEQ [USH2A_Y1909_G1911R] | 0.455
LIHTKCPQLLP [AHCY_Y143_Y143C] | 0.516
LNEAVYTKMMT [G6PD_Y401_P396L] | 1.76
KKARAYRPGIE [FLNA_Y287_G288R] | 0.289
KRISCYEARYQ [PFKFB3_Y194_S197R] | 0.466

Sequence | phosphorylation enrichment
ADARMYGVLPW [PLP1_Y207] | 0.945
RMSQRYGDVLQ [CYP1A2_Y72] | 0.399
LIFTNYEVGKD [GSTP1_Y112_A114V_YF] | 1.58
RQSTLYSFFPK [MSH6_Y8] | 18.4
LADKPYTFEDF [FXN_Y118_YF] | 1.43
NGRQCYSCRGN [PLAUR_Y217_K220R] | 0.261
HEEKVYLSRGD [CRACR2A_Y141] | 0.541
PPTFRYERGSR [INPPL1_Y663_YF] | 0.503
TDTQLYGRFGS [ITGA2B_Y384_G380D] | 0.608
YRNKPYISWPS [CDC42BPB_Y1638_S1633Y] | 0.45
LERYIYNREEF [HLA-DPB1_Y59] | 0.756
LFNQDYPIHSV [GATM_Y227_YF] | 1.46
RAADYYSQQMA [GBP6_Y334] | 0.917
QRIFQYIQSRF [DYRK1B_Y273_YF] | 0.707
SVTCTYSPTLN [TP53_Y126_A129T] | 0.92
EWQQIYTYDSG [JUP_Y20_T19I] | 1.69

Molecular target: MERTK (UniProt Q12866)
Sequence (Q12866 whole entry, looked up): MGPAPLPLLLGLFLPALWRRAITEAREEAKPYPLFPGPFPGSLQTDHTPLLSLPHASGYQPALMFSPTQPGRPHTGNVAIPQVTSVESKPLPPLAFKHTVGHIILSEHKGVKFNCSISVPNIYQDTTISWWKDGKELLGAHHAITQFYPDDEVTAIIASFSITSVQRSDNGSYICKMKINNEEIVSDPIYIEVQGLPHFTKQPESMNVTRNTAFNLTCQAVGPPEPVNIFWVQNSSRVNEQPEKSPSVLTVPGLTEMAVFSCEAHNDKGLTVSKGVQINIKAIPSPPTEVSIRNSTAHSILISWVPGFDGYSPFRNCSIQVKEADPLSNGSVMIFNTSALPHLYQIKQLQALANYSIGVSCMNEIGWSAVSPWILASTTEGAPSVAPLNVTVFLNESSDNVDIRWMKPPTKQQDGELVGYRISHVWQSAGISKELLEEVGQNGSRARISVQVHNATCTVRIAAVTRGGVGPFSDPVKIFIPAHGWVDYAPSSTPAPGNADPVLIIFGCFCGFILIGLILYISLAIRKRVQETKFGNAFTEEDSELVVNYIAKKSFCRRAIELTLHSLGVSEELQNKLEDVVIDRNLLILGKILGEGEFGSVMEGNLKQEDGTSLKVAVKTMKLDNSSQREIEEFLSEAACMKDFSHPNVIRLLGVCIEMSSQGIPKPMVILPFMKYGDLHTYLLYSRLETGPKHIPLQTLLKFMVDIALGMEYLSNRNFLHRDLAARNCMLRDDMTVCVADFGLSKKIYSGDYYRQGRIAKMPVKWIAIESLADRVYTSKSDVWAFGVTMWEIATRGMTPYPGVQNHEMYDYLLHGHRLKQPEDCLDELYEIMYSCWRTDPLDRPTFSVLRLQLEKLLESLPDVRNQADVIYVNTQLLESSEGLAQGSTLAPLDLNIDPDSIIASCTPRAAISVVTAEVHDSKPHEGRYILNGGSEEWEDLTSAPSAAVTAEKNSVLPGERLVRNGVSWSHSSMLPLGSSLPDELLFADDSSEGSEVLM
Assay: as above

Sequence | phosphorylation enrichment
GLSDLYVKIHL [SYT2_Y309_P308L] | 0.428
EQSGSYIWVPA [DLG1_Y895] | 3.33
PIYEGYALPHA [ACTA1_Y171] | 18.1
LTVVIYVLIGR [EPHA3_Y561] | 0.697
NFDRIYIFHLR [MYOF_Y1137_V1136I_YF] | 0.524
SQQTFCRVSNM [ABCD1_Y181_Y181C_YF] | 0.412
ERCAQYKKDGA [ALDOA_Y138] | 0.368
FEPWVYSLSYE [PRKDC_Y647_F649L] | 1.6
DPTNTYARPAE [SGMS2_Y24] | 0.516
KDAGDYKCKAK [LRIT3_Y326] | 0.332
EKAEVYRSENE [RIOK2_Y348_G349R] | 0.44
EGTGHYLCNAC [GATA5_Y208_D203E] | 0.54
DSILVYQRKEQ [USH2A_Y1909_G1911R] | 0.475
LIHTKCPQLLP [AHCY_Y143_Y143C] | 0.476
LNEAVYTKMMT [G6PD_Y401_P396L] | 3.19
KKARAYRPGIE [FLNA_Y287_G288R] | 0.371
KRISCYEARYQ [PFKFB3_Y194_S197R] | 0.357

Sequence | phosphorylation enrichment
ADARMYGVLPW [PLP1_Y207] | 3.38
RMSQRYGDVLQ [CYP1A2_Y72] | 0.481
LIFTNYEVGKD [GSTP1_Y112_A114V_YF] | 0.983
RQSTLYSFFPK [MSH6_Y8] | 22.1
LADKPYTFEDF [FXN_Y118_YF] | 1.39
NGRQCYSCRGN [PLAUR_Y217_K220R] | 0.346
HEEKVYLSRGD [CRACR2A_Y141] | 0.611
PPTFRYERGSR [INPPL1_Y663_YF] | 0.753
TDTQLYGRFGS [ITGA2B_Y384_G380D] | 0.98
YRNKPYISWPS [CDC42BPB_Y1638_S1633Y] | 0.449
LERYIYNREEF [HLA-DPB1_Y59] | 0.629
LFNQDYPIHSV [GATM_Y227_YF] | 0.796
RAADYYSQQMA [GBP6_Y334] | 0.39
QRIFQYIQSRF [DYRK1B_Y273_YF] | 0.728
SVTCTYSPTLN [TP53_Y126_A129T] | 0.503
EWQQIYTYDSG [JUP_Y20_T19I] | 7.85

Tested on: Fer (mouse)
Assay: as above

Sequence | phosphorylation enrichment
GLSDLYVKIHL [SYT2_Y309_P308L] | 0.705
EQSGSYIWVPA [DLG1_Y895] | 0.514
PIYEGYALPHA [ACTA1_Y171] | 26.2
LTVVIYVLIGR [EPHA3_Y561] | 1.83
NFDRIYIFHLR [MYOF_Y1137_V1136I_YF] | 0.606
SQQTFCRVSNM [ABCD1_Y181_Y181C_YF] | 0.408
ERCAQYKKDGA [ALDOA_Y138] | 0.341
FEPWVYSLSYE [PRKDC_Y647_F649L] | 1.77
DPTNTYARPAE [SGMS2_Y24] | 0.33
KDAGDYKCKAK [LRIT3_Y326] | 0.312
EKAEVYRSENE [RIOK2_Y348_G349R] | 0.466
EGTGHYLCNAC [GATA5_Y208_D203E] | 0.378
DSILVYQRKEQ [USH2A_Y1909_G1911R] | 0.487
LIHTKCPQLLP [AHCY_Y143_Y143C] | 0.46
LNEAVYTKMMT [G6PD_Y401_P396L] | 16.1
KKARAYRPGIE [FLNA_Y287_G288R] | 0.31
KRISCYEARYQ [PFKFB3_Y194_S197R] | 0.4

Sequence | phosphorylation enrichment
ADARMYGVLPW [PLP1_Y207] | 0.594
RMSQRYGDVLQ [CYP1A2_Y72] | 0.644
LIFTNYEVGKD [GSTP1_Y112_A114V_YF] | 1.17
RQSTLYSFFPK [MSH6_Y8] | 4.37
LADKPYTFEDF [FXN_Y118_YF] | 1.96
NGRQCYSCRGN [PLAUR_Y217_K220R] | 0.274
HEEKVYLSRGD [CRACR2A_Y141] | 0.569
PPTFRYERGSR [INPPL1_Y663_YF] | 0.546
TDTQLYGRFGS [ITGA2B_Y384_G380D] | 0.479
YRNKPYISWPS [CDC42BPB_Y1638_S1633Y] | 0.394
LERYIYNREEF [HLA-DPB1_Y59] | 0.587
LFNQDYPIHSV [GATM_Y227_YF] | 1.24
RAADYYSQQMA [GBP6_Y334] | 0.416
QRIFQYIQSRF [DYRK1B_Y273_YF] | 0.693
SVTCTYSPTLN [TP53_Y126_A129T] | 0.667
EWQQIYTYDSG [JUP_Y20_T19I] | 4.55

Molecular target: Fes (UniProt P07332)
Sequence (P07332 whole entry, looked up): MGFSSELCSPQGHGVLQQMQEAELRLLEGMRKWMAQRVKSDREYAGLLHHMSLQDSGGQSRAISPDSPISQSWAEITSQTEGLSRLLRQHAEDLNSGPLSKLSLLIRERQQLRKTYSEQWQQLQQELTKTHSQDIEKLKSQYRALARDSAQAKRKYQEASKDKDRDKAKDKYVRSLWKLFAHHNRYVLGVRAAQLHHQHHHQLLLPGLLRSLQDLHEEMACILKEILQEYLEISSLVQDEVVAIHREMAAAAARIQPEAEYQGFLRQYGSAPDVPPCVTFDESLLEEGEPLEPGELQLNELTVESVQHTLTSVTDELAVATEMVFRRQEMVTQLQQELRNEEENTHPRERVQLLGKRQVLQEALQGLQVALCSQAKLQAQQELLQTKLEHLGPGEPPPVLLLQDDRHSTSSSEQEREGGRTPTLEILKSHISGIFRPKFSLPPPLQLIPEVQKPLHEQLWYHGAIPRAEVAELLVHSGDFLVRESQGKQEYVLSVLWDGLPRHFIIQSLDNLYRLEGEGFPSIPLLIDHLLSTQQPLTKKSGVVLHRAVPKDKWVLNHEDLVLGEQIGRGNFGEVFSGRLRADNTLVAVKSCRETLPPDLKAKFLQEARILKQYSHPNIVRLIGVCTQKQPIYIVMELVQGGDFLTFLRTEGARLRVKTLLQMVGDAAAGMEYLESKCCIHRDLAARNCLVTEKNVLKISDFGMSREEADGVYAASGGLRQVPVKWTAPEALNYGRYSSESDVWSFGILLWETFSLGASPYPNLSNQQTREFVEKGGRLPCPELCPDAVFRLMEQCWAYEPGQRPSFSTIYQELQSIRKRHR
Assay: as above

Sequence | phosphorylation enrichment
GLSDLYVKIHL [SYT2_Y309_P308L] | 1.45
EQSGSYIWVPA [DLG1_Y895] | 1.16
PIYEGYALPHA [ACTA1_Y171] | 3.4
LTVVIYVLIGR [EPHA3_Y561] | 2.13
NFDRIYIFHLR [MYOF_Y1137_V1136I_YF] | 1.42
SQQTFCRVSNM [ABCD1_Y181_Y181C_YF] | 0.679
ERCAQYKKDGA [ALDOA_Y138] | 0.574
FEPWVYSLSYE [PRKDC_Y647_F649L] | 1.49
DPTNTYARPAE [SGMS2_Y24] | 0.785
KDAGDYKCKAK [LRIT3_Y326] | 0.618
EKAEVYRSENE [RIOK2_Y348_G349R] | 1.08
EGTGHYLCNAC [GATA5_Y208_D203E] | 0.57
DSILVYQRKEQ [USH2A_Y1909_G1911R] | 0.744
LIHTKCPQLLP [AHCY_Y143_Y143C] | 0.936
LNEAVYTKMMT [G6PD_Y401_P396L] | 2.05
KKARAYRPGIE [FLNA_Y287_G288R] | 0.45
KRISCYEARYQ [PFKFB3_Y194_S197R] | 0.746

Sequence | phosphorylation enrichment
ADARMYGVLPW [PLP1_Y207] | 0.84
RMSQRYGDVLQ [CYP1A2_Y72] | 0.967
LIFTNYEVGKD [GSTP1_Y112_A114V_YF] | 2.21
RQSTLYSFFPK [MSH6_Y8] | 1.77
LADKPYTFEDF [FXN_Y118_YF] | 2.52
NGRQCYSCRGN [PLAUR_Y217_K220R] | 0.461
HEEKVYLSRGD [CRACR2A_Y141] | 1.05
PPTFRYERGSR [INPPL1_Y663_YF] | 0.822
TDTQLYGRFGS [ITGA2B_Y384_G380D] | 0.888
YRNKPYISWPS [CDC42BPB_Y1638_S1633Y] | 0.635
LERYIYNREEF [HLA-DPB1_Y59] | 1.24
LFNQDYPIHSV [GATM_Y227_YF] | 2.09
RAADYYSQQMA [GBP6_Y334] | 0.619
QRIFQYIQSRF [DYRK1B_Y273_YF] | 1.45
SVTCTYSPTLN [TP53_Y126_A129T] | 1.58
EWQQIYTYDSG [JUP_Y20_T19I] | 1.18
